Measurements taken from patent publication US20170022281A1 (AbbVie / Abbott, published 2017).

Legend:
human PRLR on cells = molecular target: T1, human PRLR on cells (human, UniProt P16471 25-622); experiment: cell-based or functional assay
T1 sequence: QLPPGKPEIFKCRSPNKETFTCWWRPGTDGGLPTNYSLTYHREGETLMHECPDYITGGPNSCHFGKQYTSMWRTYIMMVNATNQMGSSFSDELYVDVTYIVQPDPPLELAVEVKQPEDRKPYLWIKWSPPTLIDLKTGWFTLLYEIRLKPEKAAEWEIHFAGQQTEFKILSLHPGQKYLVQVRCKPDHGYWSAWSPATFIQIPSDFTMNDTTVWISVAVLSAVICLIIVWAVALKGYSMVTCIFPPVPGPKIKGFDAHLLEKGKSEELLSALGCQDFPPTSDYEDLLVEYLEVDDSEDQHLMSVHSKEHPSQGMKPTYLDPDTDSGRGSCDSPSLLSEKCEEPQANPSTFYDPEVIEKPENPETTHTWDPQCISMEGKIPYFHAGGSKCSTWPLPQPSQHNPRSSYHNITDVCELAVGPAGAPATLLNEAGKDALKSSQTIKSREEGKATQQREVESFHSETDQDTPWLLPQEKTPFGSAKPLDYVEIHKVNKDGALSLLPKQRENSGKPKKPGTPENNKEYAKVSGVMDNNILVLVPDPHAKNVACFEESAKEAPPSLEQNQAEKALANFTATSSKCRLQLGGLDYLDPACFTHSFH

[1] = molecular target: T2, human PRLR (Biacore antigen) (human, UniProt P16471 25-234, limits assumed); experiment: SPR simultaneous binding; PRLR held by surface mAb chAb8
T2 construct: The construct injected over captured antibody is not described (a soluble form is likely); also called huPRLR
T2 sequence: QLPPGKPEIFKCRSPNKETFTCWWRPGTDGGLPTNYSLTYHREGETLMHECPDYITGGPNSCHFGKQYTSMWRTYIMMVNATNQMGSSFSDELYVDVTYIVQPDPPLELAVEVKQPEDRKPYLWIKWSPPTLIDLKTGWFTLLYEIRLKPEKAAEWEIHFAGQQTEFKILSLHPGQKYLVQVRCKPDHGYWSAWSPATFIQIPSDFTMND
Method: (§1) Running buffer was HBS-EP+ (10 mM Hepes, pH7.4, 150 mM NaCl, 3 mM EDTA, 0.05% surfactant). Assay was performed at 12° C. using Biacore T200 and CM5 sensor chips with anti-human IgG (Pierce) amine-coupled in all 4 flow cells to ˜2000 RU.
(§2) Separate test mAbs were captured in flowcells 2, 3 & 4 (flowcell 1 was reference, no test mAb). All 4 flowcells were then blocked by injection with isotype control mAb at 50 ug/ml. All 4 flowcells were then injected with antigen or buffer only (buffer only is for double referencing, done for each mAb pair individually). All 4 flowcells were then injected with 2nd test mAb at 10 ug/ml. All 4 flowcells were then regenerated with glycine, pH1.5.

[2] = molecular target: T3, cyno PRLR ECD-his6 protein (cyno); experiment: ELISA on ECD
T3 chain: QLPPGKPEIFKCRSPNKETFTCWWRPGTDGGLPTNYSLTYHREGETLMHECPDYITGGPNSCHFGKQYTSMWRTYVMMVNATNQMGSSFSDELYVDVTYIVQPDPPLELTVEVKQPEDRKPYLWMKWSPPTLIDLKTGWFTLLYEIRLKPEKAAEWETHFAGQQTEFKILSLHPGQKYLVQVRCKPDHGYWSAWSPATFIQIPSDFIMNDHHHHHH
Method in brief: (§3)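 EC50 values derive from fitted binding curves of antibody serial dilutions (1 h) on captured PRLR. Detection used an HRP-conjugated secondary (1 h), TMB development for 3–5 min, an H₂SO₄ stop and a 450 nm read, with all steps in Tween/PBS pH 7.4 buffer.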

[3] = molecular target: T4, human PRLR ECD-Fc fusion protein (human, UniProt P16471 25-233); experiment: ELISA on ECD
T4 construct: not shown: Fc region (captured by goat anti-human Fc)
T4 sequence: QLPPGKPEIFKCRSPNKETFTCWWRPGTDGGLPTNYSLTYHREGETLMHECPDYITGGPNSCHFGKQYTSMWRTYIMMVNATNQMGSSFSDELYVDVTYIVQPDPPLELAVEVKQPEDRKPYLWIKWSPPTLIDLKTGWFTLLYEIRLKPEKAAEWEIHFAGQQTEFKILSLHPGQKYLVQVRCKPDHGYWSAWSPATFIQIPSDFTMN
Method in brief: as §3

[4] = molecular target: T2, human PRLR (Biacore antigen); experiment: SPR simultaneous binding; PRLR held by surface mAb Ab48
Method: as §1, §2

[5] = molecular target: T2, human PRLR (Biacore antigen); experiment: SPR simultaneous binding; PRLR held by surface mAb Ab30
Method: as §1, §2

[6] = molecular target: T2, human PRLR (Biacore antigen); experiment: SPR simultaneous binding; PRLR held by surface mAb Ab40
Method: as §1, §2

[7] = molecular target: T2, human PRLR (Biacore antigen); experiment: SPR simultaneous binding; PRLR held by surface mAb LFA102
Method: as §1, §2

B1: LFA102 (antibody, human IgG1, kappa, V domains shown)
VH: EVQLVESGGGLVQPGGSLRLSCAVSGFTFSSYGMSWVRQAPGKRLEWVATVSSGGTYTYYPDSVKGRFTISRDNSKNTLYLQMNSLRAEDTAMYYCARHRGNYYATYYYAMDYWGQGTLVTVSS
VL: DIVLTQSPDSLAVSLGERATINCKASKSVSTSGYTYMHWYQQKPGQPPKLLIYLASNRESGVPDRFSGSGSGTDFTLTISPVQAEDVATYYCQHSGELPPSFGQGTKLEIKR
notes: humanized IgG1 kappa comparator (WO 2008022295)
Baf3-hPRLR proliferation IC50 (human PRLR on cells): 0.56 µg/mL | T47D pPRLR ELISA IC50 (human PRLR on cells): 0.069 µg/mL | solution mAb binding, % of PRLR binding [1]: 1% | EC50 [2]: 0.154 nM | EC50 [3]: 0.053 nM | solution mAb binding, % of PRLR binding [4]: -1% | solution mAb binding, % of PRLR binding [5]: 35% | solution mAb binding, % of PRLR binding [6]: 40% | solution mAb binding, % of PRLR binding [7]: -2%

B2: Ab19 (antibody, human IgG1, kappa, V domains shown)
VH: EVQLVQSGAEVKKPGSSVKVSCKASGYTFTTYWMHWVRQAPGQGLEWIGEIDPSDSYSNYNQKFKDRATLTVDKSTSTAYMELSSLRSEDTAVYYCARNGGLGPAWFSYWGQGTLVTVSS
VL: DIQMTQSPSSVSASVGDRVTITCKASQYVGTAVAWYQQKPGKSPKLLIYSASNRYTGVPSRFSDSGSGTDFTLTISSLQPEDFATYFCQQYSSYPWTFGGGTKVEIKR
notes: humanized from Ab6; G1; also called Ab1 HC.1a and Ab1 LC.1a
Baf3-hPRLR proliferation IC50 (human PRLR on cells): 0.12 µg/mL | solution mAb binding, % of PRLR binding [1]: 0% | EC50 [2]: 0.0575 nM | EC50 [3]: 0.0614 nM | solution mAb binding, % of PRLR binding [4]: 0% | solution mAb binding, % of PRLR binding [5]: -1% | solution mAb binding, % of PRLR binding [6]: -2% | solution mAb binding, % of PRLR binding [7]: 122%

B3: Ab21 (antibody, human IgG1, kappa, V domains shown)
VH: EVQLVQSGAEVKKPGSSVKVSCKASGYTFTTYWMHWVRQAPGQGLEWIGEIDPSDSYSNYNQKFKDRATLTVDKSTSTAYMELSSLRSEDTAVYYCARNGGLGPAWFSYWGQGTLVTVSS
VL: EIVMTQSPATLSVSPGERATLSCKASQYVGTAVAWYQQKPGQSPRLLIYSASNRYTGVPARFSDSGSGTEFTLTISSLQSEDFAVYFCQQYSSYPWTFGGGTKVEIKR
notes: humanized from Ab6; G1; also called Ab1 HC.1a and Ab1 LC.2a
Baf3-hPRLR proliferation IC50 (human PRLR on cells): 0.15 µg/mL | solution mAb binding, % of PRLR binding [1]: 0% | EC50 [2]: 0.0537 nM | EC50 [3]: 0.0728 nM | solution mAb binding, % of PRLR binding [4]: 1% | solution mAb binding, % of PRLR binding [5]: -1% | solution mAb binding, % of PRLR binding [6]: -2% | solution mAb binding, % of PRLR binding [7]: 104%

B4: chAb6 (antibody, human IgG1, kappa, V domains shown)
VH: QVQLQQPGAELVMPGSSVKLSCKASGYTFTTYWMHWVKQRPGQGLEWIGEIDPSDSYSNYNQKFKDKATLTVDKSSSTAYMQLSSLTSEDSAVYYCARNGGLGPAWFSYWGQGTLVTVSA
VL: DIVMTQSQKFMSTTVGDRVSITCKASQYVGTAVAWYQQKPGQSPKLLIYSASNRYTGVPDRFTDSGSGTDFTLTISNLQSEDLADYFCQQYSSYPWTFGGGTKLEIKT
notes: chimeric, murine variable and human G1/kappa constant regions
Baf3-hPRLR proliferation IC50 (human PRLR on cells): 0.28 µg/mL | solution mAb binding, % of PRLR binding [1]: 0% | EC50 [2]: 0.072 nM | EC50 [3]: 0.103 nM | solution mAb binding, % of PRLR binding [4]: 0% | solution mAb binding, % of PRLR binding [5]: -1% | solution mAb binding, % of PRLR binding [6]: -2% | solution mAb binding, % of PRLR binding [7]: 90%

B5: chAb5 (antibody, human IgG1, kappa, V domains shown)
VH: QVQLQQPGAELVRPGTSVKLSCKASGYTFTSFWMHWVKQRPGQGLEWIGVIDPSDTYTNYNQKFKGKATLTVDTSSSTAYMQLSSLTSEDSAVYYCARGDYSNWFTYWGQGTLVTVSA
VL: DVVMTQTPLSLPVSLGDQASISCRSSQRLVHSNGNTYLHWYLQKPGQSPKLLIYKVSNRFSGVPDRFSGSGSGTDFTLKISRVEAEDLGVYFCSQSTHVPWTFGGGTKLEIKT
notes: as for B4
Baf3-hPRLR proliferation IC50 (human PRLR on cells): 0.15 µg/mL | solution mAb binding, % of PRLR binding [1]: 7% | EC50 [2]: 0.103 nM | EC50 [3]: 0.098 nM | solution mAb binding, % of PRLR binding [4]: 8% | solution mAb binding, % of PRLR binding [5]: -1% | solution mAb binding, % of PRLR binding [6]: -2% | solution mAb binding, % of PRLR binding [7]: 102%

B6: chAb7 (antibody, human IgG1, kappa, V domains shown)
VH: QVQLQQPGAELVMPGTSVKLSCKASGYTFTSYWIHWVKQRPGQGLEWIGEIDPSDSYTNYNQKFKGKATLTVDRSSSTAYMQLSSLTSEDSAVYYCGRSFFTNWFAYWGQGTLVTVSA
VL: DVVMTQTPLSLPVSLGDQASISCRSSQSLVHSNGNTYLHWYLQKPGQSPKLLIYKVSNRFSGVPDRFSGSGSGTDFTLKINRVEAEDLGVYFCSQSTHVPFTFGSGTKLEIKT
notes: as for B4
Baf3-hPRLR proliferation IC50 (human PRLR on cells): 1.2 µg/mL | solution mAb binding, % of PRLR binding [1]: 2% | EC50 [2]: 0.118 nM | EC50 [3]: 0.151 nM | solution mAb binding, % of PRLR binding [4]: 1% | solution mAb binding, % of PRLR binding [5]: -1% | solution mAb binding, % of PRLR binding [6]: -2% | solution mAb binding, % of PRLR binding [7]: 48%

B7: Ab48 (antibody, human IgG1, kappa, V domains shown)
VH: EVQLVQSGAEVKKPGASVKVSCKASGYTFTDYNIHWVRQAPGQGLEWIGYIYPNNDGTGYNQKFKSRATLTVDNSTSTAYMELRSLRSDDTAVYYCARGDGNYVGDMDYWGQGTTVTVSS
VL: DIQMTQSPSSLSASVGDRVTITCRASENIYSYLAWYQQKPGKPPKLLVYNAKTLAEGVPSRFSGSGSGTDFTLTISSLQPEDFATYYCQHHYATPFTFGQGTKLEIKR
notes: humanized from Ab8; G1; also called Ab3 HC.1a and Ab3 LC.1a
Baf3-hPRLR proliferation IC50 (human PRLR on cells): 0.4 µg/mL | solution mAb binding, % of PRLR binding [1]: -1% | EC50 [2]: 0.236 nM | EC50 [3]: 0.0746 nM | solution mAb binding, % of PRLR binding [4]: -1% | solution mAb binding, % of PRLR binding [5]: -1% | solution mAb binding, % of PRLR binding [6]: -2% | solution mAb binding, % of PRLR binding [7]: -2%

B8: chAb8 (antibody, human IgG1, kappa, V domains shown)
VH: EVQLQQSGPELVKPGASVKISCKASGYTFTDYNIHWVKQSHGKSLEWIGYIYPNNDGTGYNQKFKSKATLTVDNSSSTAYMEVRSLTSEDSAVYYCARGDGNYVGDMDYWGQGTSVTVSS
VL: DIQMTQSPASLSASVGETVTITCRASENIYSYLAWYQQKQGKPPQLLVYNAKTLAEGVPSRFSGGGSGTQFSLKINSLQPEDFGSYYCQHHYATPFTFGSGTKLEIKT
notes: as for B4
Baf3-hPRLR proliferation IC50 (human PRLR on cells): 0.3 µg/mL | solution mAb binding, % of PRLR binding [1]: -1% | EC50 [2]: 0.191 nM | EC50 [3]: 0.08 nM | solution mAb binding, % of PRLR binding [4]: -1% | solution mAb binding, % of PRLR binding [5]: -1% | solution mAb binding, % of PRLR binding [6]: -2% | solution mAb binding, % of PRLR binding [7]: -2%
